Source: patent publication US20220047631A1
Values belong to the binder of their own block, whether it stands above or below them.

Assays:
[1] = molecular target: Glycopeptide; assay: surface plasmon resonance, Table S3 of Brooks et al. (2010) PNAS drawn on the sheet; per legend paragraph 58 measured for the 237 Fab [C]
[2] = molecular target: Tn-glycosylated murine podoplanin on COSMC-mutant cells (murine) (UniProt Q62011); assay: flow cytometry on Ag104A, Jurkat and SKOV3 variants; binding ratio = MFI primary+secondary / MFI secondary alone
Sequence of Tn-glycosylated murine podoplanin on COSMC-mutant cells (murine) (Q62011 23-172, change not shown): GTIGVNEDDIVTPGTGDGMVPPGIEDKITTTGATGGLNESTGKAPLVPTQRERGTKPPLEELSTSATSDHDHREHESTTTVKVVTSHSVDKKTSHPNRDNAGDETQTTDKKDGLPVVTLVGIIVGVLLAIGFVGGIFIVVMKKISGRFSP

koff [1]: 0.013 s⁻¹
kon [1]: 94000 M⁻¹ s⁻¹
B1: 237mAb Fab (Fab, V domains shown)
VH: QVQLQQSGGGLVQPGGSMKIFCAASGFTFSDAWMDWVRQSPEKGLEWVAEIRNKANNHETYYAESVKGRFTITRDDSKSRMSLQMNSLRAEDTGIYYCSGGKVRNAYWGQGTTVTVSS
VL: DIQLTQSPLSLPVSLGDQASISCRSSQSLVHSNGNTYLHWYLQKPGQSPKLLIYKVSNRFSGVPDRFSGSGSGTDFTLKISSVEAEDLGVYFCSQSTHVPTFGGGTKLEIK

fold of binding ratio over cells that were PDPN- and/or Cosmc+ [2]: > 100 fold
B2: 237 monoclonal antibody (antibody, V domains shown)
VH: B1 VH
VL: B1 VL
